Test results from patent US20140087995A1 (published 2014).
Numbered stars: 1 amine (or outer) side, 2 acyl side, 3 side chain; on linkers, the order of the positions; unused ones are H or OH. Bridge positions count the residues as written; N and C are the ends. Side chains are listed from the residue outwards. Ends that are not written are not given here. * marks the point of attachment. C20 diacid = O=C(O)CCCCCCCCCCCCCCCCCCC(=O)*; γGlu = O=C(O)[C@H](CCC(=O)[*:2])N[*:1]; AEEA = NCCOCCOCC(=O)O

B1: N^ε1-[2-[2-[2-[[(4S)-4-carboxy-4-(19-carboxynonadecanoylamino)butanoyl]amino]ethoxy]ethoxy]acetyl]-[Lys14,Arg17,Pro21,Pro27,Pro31]-h-amylin (peptide)
peptide: K([AEEA-γGlu-C20 diacid])CNTATCATQRLAKFLRHSSPNFGAIPSSTPVGSNTY-NH2
modifications: disulfide 2-7; N-terminus assumed
SMILES: CC[C@H](C)[C@H](NC(=O)[C@H](C)NC(=O)CNC(=O)[C@H](Cc1ccccc1)NC(=O)[C@H](CC(N)=O)NC(=O)[C@@H]1CCCN1C(=O)[C@H](CO)NC(=O)[C@H](CO)NC(=O)[C@H](Cc1c[nH]cn1)NC(=O)[C@H](CCCNC(=N)N)NC(=O)[C@H](CC(C)C)NC(=O)[C@H](Cc1ccccc1)NC(=O)[C@H](CCCCN)NC(=O)[C@H](C)NC(=O)[C@H](CC(C)C)NC(=O)[C@H](CCCNC(=N)N)NC(=O)[C@H](CCC(N)=O)NC(=O)[C@@H](NC(=O)[C@H](C)NC(=O)[C@@H]1CSSC[C@H](NC(=O)[C@@H](N)CCCCNC(=O)COCCOCCNC(=O)CC[C@H](NC(=O)CCCCCCCCCCCCCCCCCCC(=O)O)C(=O)O)C(=O)N[C@@H](CC(N)=O)C(=O)N[C@@H]([C@@H](C)O)C(=O)N[C@@H](C)C(=O)N[C@@H]([C@@H](C)O)C(=O)N1)[C@@H](C)O)C(=O)N1CCC[C@H]1C(=O)N[C@@H](CO)C(=O)N[C@@H](CO)C(=O)N[C@H](C(=O)N1CCC[C@H]1C(=O)N[C@H](C(=O)NCC(=O)N[C@@H](CO)C(=O)N[C@@H](CC(N)=O)C(=O)N[C@H](C(=O)N[C@@H](Cc1ccc(O)cc1)C(N)=O)[C@@H](C)O)C(C)C)[C@@H](C)O
notes: Analogue of human amylin; disulfide and C-terminal amide as told for h-amylin; Acylation site is 1K, not Lys14; also called compound 74
B2: N^ε1-[2-[2-[2-[[(4S)-4-carboxy-4-(19-carboxynonadecanoylamino)butanoyl]amino]ethoxy]ethoxy]acetyl]-[Ser14,Arg17,Pro21,Pro27,Pro31]-h-amylin (peptide)
peptide: K([AEEA-γGlu-C20 diacid])CNTATCATQRLASFLRHSSPNFGAIPSSTPVGSNTY-NH2
modifications: disulfide 2-7; N-terminus assumed
SMILES: CC[C@H](C)[C@H](NC(=O)[C@H](C)NC(=O)CNC(=O)[C@H](Cc1ccccc1)NC(=O)[C@H](CC(N)=O)NC(=O)[C@@H]1CCCN1C(=O)[C@H](CO)NC(=O)[C@H](CO)NC(=O)[C@H](Cc1c[nH]cn1)NC(=O)[C@H](CCCNC(=N)N)NC(=O)[C@H](CC(C)C)NC(=O)[C@H](Cc1ccccc1)NC(=O)[C@H](CO)NC(=O)[C@H](C)NC(=O)[C@H](CC(C)C)NC(=O)[C@H](CCCNC(=N)N)NC(=O)[C@H](CCC(N)=O)NC(=O)[C@@H](NC(=O)[C@H](C)NC(=O)[C@@H]1CSSC[C@H](NC(=O)[C@@H](N)CCCCNC(=O)COCCOCCNC(=O)CC[C@H](NC(=O)CCCCCCCCCCCCCCCCCCC(=O)O)C(=O)O)C(=O)N[C@@H](CC(N)=O)C(=O)N[C@@H]([C@@H](C)O)C(=O)N[C@@H](C)C(=O)N[C@@H]([C@@H](C)O)C(=O)N1)[C@@H](C)O)C(=O)N1CCC[C@H]1C(=O)N[C@@H](CO)C(=O)N[C@@H](CO)C(=O)N[C@H](C(=O)N1CCC[C@H]1C(=O)N[C@H](C(=O)NCC(=O)N[C@@H](CO)C(=O)N[C@@H](CC(N)=O)C(=O)N[C@H](C(=O)N[C@@H](Cc1ccc(O)cc1)C(N)=O)[C@@H](C)O)C(C)C)[C@@H](C)O
notes: Analogue of human amylin; disulfide and C-terminal amide as told for h-amylin; also called compound 73
B3: N^ε1-[2-[2-[2-[[(4S)-4-carboxy-4-(19-carboxynonadecanoylamino)butanoyl]amino]ethoxy]ethoxy]acetyl]-[Thr14,Arg17,Pro21,Pro27,Pro31]-h-amylin (peptide)
peptide: K([AEEA-γGlu-C20 diacid])CNTATCATQRLATFLRHSSPNFGAIPSSTPVGSNTY-NH2
modifications: disulfide 2-7; N-terminus assumed
SMILES: CC[C@H](C)[C@H](NC(=O)[C@H](C)NC(=O)CNC(=O)[C@H](Cc1ccccc1)NC(=O)[C@H](CC(N)=O)NC(=O)[C@@H]1CCCN1C(=O)[C@H](CO)NC(=O)[C@H](CO)NC(=O)[C@H](Cc1c[nH]cn1)NC(=O)[C@H](CCCNC(=N)N)NC(=O)[C@H](CC(C)C)NC(=O)[C@H](Cc1ccccc1)NC(=O)[C@@H](NC(=O)[C@H](C)NC(=O)[C@H](CC(C)C)NC(=O)[C@H](CCCNC(=N)N)NC(=O)[C@H](CCC(N)=O)NC(=O)[C@@H](NC(=O)[C@H](C)NC(=O)[C@@H]1CSSC[C@H](NC(=O)[C@@H](N)CCCCNC(=O)COCCOCCNC(=O)CC[C@H](NC(=O)CCCCCCCCCCCCCCCCCCC(=O)O)C(=O)O)C(=O)N[C@@H](CC(N)=O)C(=O)N[C@@H]([C@@H](C)O)C(=O)N[C@@H](C)C(=O)N[C@@H]([C@@H](C)O)C(=O)N1)[C@@H](C)O)[C@@H](C)O)C(=O)N1CCC[C@H]1C(=O)N[C@@H](CO)C(=O)N[C@@H](CO)C(=O)N[C@H](C(=O)N1CCC[C@H]1C(=O)N[C@H](C(=O)NCC(=O)N[C@@H](CO)C(=O)N[C@@H](CC(N)=O)C(=O)N[C@H](C(=O)N[C@@H](Cc1ccc(O)cc1)C(N)=O)[C@@H](C)O)C(C)C)[C@@H](C)O
notes: Analogue of human amylin; disulfide and C-terminal amide as told for h-amylin; also called compound 75
B4: N^ε1-[(4S)-4-carboxy-4-(19-carboxynonadecanoylamino)butanoyl]-[Ala14,Arg17,Pro21,Pro27,His34]-h-amylin (peptide)
peptide: K([γGlu-C20 diacid])CNTATCATQRLAAFLRHSSPNFGAIPSSTNVGHNTY-NH2
modifications: disulfide 2-7; N-terminus assumed
SMILES: CC[C@H](C)[C@H](NC(=O)[C@H](C)NC(=O)CNC(=O)[C@H](Cc1ccccc1)NC(=O)[C@H](CC(N)=O)NC(=O)[C@@H]1CCCN1C(=O)[C@H](CO)NC(=O)[C@H](CO)NC(=O)[C@H](Cc1c[nH]cn1)NC(=O)[C@H](CCCNC(=N)N)NC(=O)[C@H](CC(C)C)NC(=O)[C@H](Cc1ccccc1)NC(=O)[C@H](C)NC(=O)[C@H](C)NC(=O)[C@H](CC(C)C)NC(=O)[C@H](CCCNC(=N)N)NC(=O)[C@H](CCC(N)=O)NC(=O)[C@@H](NC(=O)[C@H](C)NC(=O)[C@@H]1CSSC[C@H](NC(=O)[C@@H](N)CCCCNC(=O)CC[C@H](NC(=O)CCCCCCCCCCCCCCCCCCC(=O)O)C(=O)O)C(=O)N[C@@H](CC(N)=O)C(=O)N[C@@H]([C@@H](C)O)C(=O)N[C@@H](C)C(=O)N[C@@H]([C@@H](C)O)C(=O)N1)[C@@H](C)O)C(=O)N1CCC[C@H]1C(=O)N[C@@H](CO)C(=O)N[C@@H](CO)C(=O)N[C@H](C(=O)N[C@@H](CC(N)=O)C(=O)N[C@H](C(=O)NCC(=O)N[C@@H](Cc1c[nH]cn1)C(=O)N[C@@H](CC(N)=O)C(=O)N[C@H](C(=O)N[C@@H](Cc1ccc(O)cc1)C(N)=O)[C@@H](C)O)C(C)C)[C@@H](C)O
notes: Analogue of human amylin; disulfide and C-terminal amide as told for h-amylin; also called compound 93
B5: N^ε1-[(4S)-4-carboxy-4-(19-carboxynonadecanoylamino)butanoyl]-[Arg14,Arg17,Pro21,Pro27,Pro31]-h-amylin (peptide)
peptide: K([γGlu-C20 diacid])CNTATCATQRLARFLRHSSPNFGAIPSSTPVGSNTY-NH2
modifications: disulfide 2-7; N-terminus assumed
SMILES: CC[C@H](C)[C@H](NC(=O)[C@H](C)NC(=O)CNC(=O)[C@H](Cc1ccccc1)NC(=O)[C@H](CC(N)=O)NC(=O)[C@@H]1CCCN1C(=O)[C@H](CO)NC(=O)[C@H](CO)NC(=O)[C@H](Cc1c[nH]cn1)NC(=O)[C@H](CCCNC(=N)N)NC(=O)[C@H](CC(C)C)NC(=O)[C@H](Cc1ccccc1)NC(=O)[C@H](CCCNC(=N)N)NC(=O)[C@H](C)NC(=O)[C@H](CC(C)C)NC(=O)[C@H](CCCNC(=N)N)NC(=O)[C@H](CCC(N)=O)NC(=O)[C@@H](NC(=O)[C@H](C)NC(=O)[C@@H]1CSSC[C@H](NC(=O)[C@@H](N)CCCCNC(=O)CC[C@H](NC(=O)CCCCCCCCCCCCCCCCCCC(=O)O)C(=O)O)C(=O)N[C@@H](CC(N)=O)C(=O)N[C@@H]([C@@H](C)O)C(=O)N[C@@H](C)C(=O)N[C@@H]([C@@H](C)O)C(=O)N1)[C@@H](C)O)C(=O)N1CCC[C@H]1C(=O)N[C@@H](CO)C(=O)N[C@@H](CO)C(=O)N[C@H](C(=O)N1CCC[C@H]1C(=O)N[C@H](C(=O)NCC(=O)N[C@@H](CO)C(=O)N[C@@H](CC(N)=O)C(=O)N[C@H](C(=O)N[C@@H](Cc1ccc(O)cc1)C(N)=O)[C@@H](C)O)C(C)C)[C@@H](C)O
notes: Analogue of human amylin; disulfide and C-terminal amide as told for h-amylin; also called compound 63

What follows are binders tested against T1, rat calcitonin receptor (rat, UniProt P32214 25-516) (assay: ratio of binding IC50 at rat calcitonin receptor to IC50 at rat amylin receptor (reference)).
T1 construct: whole, on cells; Used as membranes prepared from the transfected cells; also called rCTR; rCT
T1 sequence (looked up): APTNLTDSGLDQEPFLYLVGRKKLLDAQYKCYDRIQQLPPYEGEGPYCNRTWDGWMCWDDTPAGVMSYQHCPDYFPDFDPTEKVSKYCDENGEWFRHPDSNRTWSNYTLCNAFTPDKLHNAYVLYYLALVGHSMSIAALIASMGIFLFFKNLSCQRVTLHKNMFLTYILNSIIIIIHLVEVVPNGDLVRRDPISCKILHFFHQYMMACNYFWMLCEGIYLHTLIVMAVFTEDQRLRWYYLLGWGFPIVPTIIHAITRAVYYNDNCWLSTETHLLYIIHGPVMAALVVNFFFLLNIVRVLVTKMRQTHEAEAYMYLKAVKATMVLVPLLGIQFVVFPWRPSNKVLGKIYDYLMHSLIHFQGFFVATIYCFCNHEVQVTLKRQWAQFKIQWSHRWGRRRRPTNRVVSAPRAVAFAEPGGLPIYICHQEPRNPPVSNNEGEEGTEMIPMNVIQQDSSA

Going from B1 to B2, the “Ratio rCT/rAmylin binding” value rises from 22.3 to 178.

First: B3
Second: B4
The “Ratio rCT/rAmylin binding” value of the first is higher: 110 for the first, 83.2 for the second.

For B5, the “Ratio rCT/rAmylin binding” value was 35.6.

The binders below were run against T1, rat calcitonin receptor (assay: SPA competition with 125I-calcitonin, membranes with rat calcitonin receptor (Assay VIII)).

First: B1
Second: B2
The IC50 of the first is 2.2-fold higher: 109 nM for the first, 50.3 nM for the second. The second is the more potent here.

First: B3
Second: B4
The IC50 of the first is 3.4-fold higher: 442 nM for the first, 131 nM for the second. The second is the more potent here.

In the case of B5, the IC50 is reported as 124 nM.

Each binder was assayed against T2, human calcitonin receptor (human, UniProt P30988 25-474) (assay: ratio of binding IC50 at human calcitonin receptor to IC50 at human amylin receptor (reference)).
T2 construct: whole, on cells; Used as membranes prepared from the transfected cells; also called hCTR; hCT
T2 sequence (looked up): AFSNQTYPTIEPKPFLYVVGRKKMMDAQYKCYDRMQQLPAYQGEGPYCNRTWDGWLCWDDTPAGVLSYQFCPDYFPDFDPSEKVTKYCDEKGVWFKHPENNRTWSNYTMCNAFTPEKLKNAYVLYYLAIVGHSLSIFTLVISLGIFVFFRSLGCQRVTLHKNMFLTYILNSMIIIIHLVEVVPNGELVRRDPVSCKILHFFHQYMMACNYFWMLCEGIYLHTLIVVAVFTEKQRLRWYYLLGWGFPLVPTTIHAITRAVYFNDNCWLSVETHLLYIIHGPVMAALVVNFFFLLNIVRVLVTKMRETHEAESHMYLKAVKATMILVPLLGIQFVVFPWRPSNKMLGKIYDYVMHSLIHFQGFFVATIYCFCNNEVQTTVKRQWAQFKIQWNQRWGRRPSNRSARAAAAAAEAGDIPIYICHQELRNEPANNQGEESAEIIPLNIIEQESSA
In short: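 Scintillation proximity competition binding on cell membranes at 35 ng/μL with SPA beads, in 50 mM Hepes pH 7.4, 1 mM CaCl2, 5 mM MgCl₂, 0.1% OA, 0.02% Tween20. Incubated 120 min at 25° C with shaking. IC₅₀ from one-site competition fit.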

First: B1
Second: B2
The “Ratio hCT/hAmylin binding” value of the first is higher: 101 for the first, 51.7 for the second.

Compared with B3, B4 is higher in “Ratio hCT/hAmylin binding” value: 91.4 for the first, 101 for the second.

For B5, the “Ratio hCT/hAmylin binding” value was 157.
